# Test results from patent US20210388087A1 (Chugai, published 2021).
# Numbering of substitutions follows the chain as printed.
# B1: H183/L072 VL F55S (antibody, name in Kabat numbering, V domains shown)
# VH: QVQLVESGGGLVQPGRSLRLSCAASGFTFSNAWMHWVRQAPGKGLEWVAQIKDKGNAYAAYYAPSVKGRFTISRDDSKNSIYLQMNSLKTEDTAVYYCHYVHYASASTVLPAFGVDAWGQGTTVTVSS
# VL: DIVMTQSPLSLPVTPGEPASISCQASQELVHMNRNTYLHWYQQKPGQAPRLLIYKVSNRSPGVPDRFSGSGSGTDFTLKISRVEAEDVGVYYCAQGTSVPFTFGQGTKLEIK
# notes: Dual-Ig
# B2: H183/L072 VL F96M (antibody, name in Kabat numbering, V domains shown)
# VH: B1 VH
# VL: B1 VL with S60F, F101M
# notes: Dual-Ig
# B3: H183/L072 VL F96I (antibody, name in Kabat numbering, V domains shown)
# VH: B1 VH
# VL: B1 VL with S60F, F101I
# notes: Dual-Ig
# B4: H183/L072 VL F96Q (antibody, name in Kabat numbering, V domains shown)
# VH: B1 VH
# VL: B1 VL with S60F, F101Q
# notes: Dual-Ig
# B5: H183/L072 VL F96R (antibody, name in Kabat numbering, V domains shown)
# VH: B1 VH
# VL: B1 VL with S60F, F101R
# notes: Dual-Ig
# B6: H183/L072 VL F96D (antibody, name in Kabat numbering, V domains shown)
# VH: B1 VH
# VL: B1 VL with S60F, F101D
# notes: Dual-Ig
# B7: H183/L072 VL F96S (antibody, name in Kabat numbering, V domains shown)
# VH: B1 VH
# VL: B1 VL with S60F, F101S
# notes: Dual-Ig
# B8: H183/L072 VL F96E (antibody, name in Kabat numbering, V domains shown)
# VH: B1 VH
# VL: B1 VL with S60F, F101E
# notes: Dual-Ig
# B9: H183/L072 VL F96G (antibody, name in Kabat numbering, V domains shown)
# VH: B1 VH
# VL: B1 VL with S60F, F101G
# notes: Dual-Ig
# B10: H183/L072 VL F96H (antibody, name in Kabat numbering, V domains shown)
# VH: B1 VH
# VL: B1 VL with S60F, F101H
# notes: Dual-Ig
# B11: H183/L072 VL F55V (antibody, name in Kabat numbering, V domains shown)
# VH: B1 VH
# VL: B1 VL with S60V
# notes: Dual-Ig
# B12: H183/L072 VL F55T (antibody, name in Kabat numbering, V domains shown)
# VH: B1 VH
# VL: B1 VL with S60T
# notes: Dual-Ig
# B13: H183/L072 VL F96N (antibody, name in Kabat numbering, V domains shown)
# VH: B1 VH
# VL: B1 VL with S60F, F101N
# notes: Dual-Ig
# B14: H183/L072 VL F55W (antibody, name in Kabat numbering, V domains shown)
# VH: B1 VH
# VL: B1 VL with S60W
# notes: Dual-Ig
# B15: H183/L072 VL F96P (antibody, name in Kabat numbering, V domains shown)
# VH: B1 VH
# VL: B1 VL with S60F, F101P
# notes: Dual-Ig
# B16: H183/L072 VL F96L (antibody, name in Kabat numbering, V domains shown)
# VH: B1 VH
# VL: B1 VL with S60F, F101L
# notes: Dual-Ig
# B17: H183/L072 VL F96K (antibody, name in Kabat numbering, V domains shown)
# VH: B1 VH
# VL: B1 VL with S60F, F101K
# notes: Dual-Ig
# B18: H183/L072 VL F96A (antibody, name in Kabat numbering, V domains shown)
# VH: B1 VH
# VL: B1 VL with S60F, F101A
# notes: Dual-Ig
# Target: T1, Human CD137 ECD (human)
# T1 construct: entry includes C-terminal His-tag and biotin acceptor peptide; also called human CD137 extracellular domain; 4-1BB
# Assay: Biacore SPR, vs parent H183/L072
# T1 sequence (chain, as listed by the source limits assumed): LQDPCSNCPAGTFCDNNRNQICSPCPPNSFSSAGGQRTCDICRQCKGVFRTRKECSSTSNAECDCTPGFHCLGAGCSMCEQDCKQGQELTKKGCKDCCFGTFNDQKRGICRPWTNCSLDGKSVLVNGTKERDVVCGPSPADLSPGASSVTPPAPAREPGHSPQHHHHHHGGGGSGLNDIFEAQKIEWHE
row,Binder,fold change of affinity
1,B1,0 fold
2,B2,0 fold
3,B3,0 fold
4,B4,0 fold
5,B5,0 fold
6,B6,0 fold
7,B7,0 fold
8,B8,0 fold
9,B9,0 fold
10,B10,0 fold
11,B11,0 fold
12,B12,0 fold
13,B13,0 fold
14,B14,0.2 fold
15,B15,0 fold
16,B16,0 fold
17,B17,0 fold
18,B18,0 fold
